According to patent US12617818:

Target: Rabbit skeletal myosin (rabbit)
Assay: cell-based or functional assay

Sequence of Rabbit skeletal myosin (Q28641 whole entry): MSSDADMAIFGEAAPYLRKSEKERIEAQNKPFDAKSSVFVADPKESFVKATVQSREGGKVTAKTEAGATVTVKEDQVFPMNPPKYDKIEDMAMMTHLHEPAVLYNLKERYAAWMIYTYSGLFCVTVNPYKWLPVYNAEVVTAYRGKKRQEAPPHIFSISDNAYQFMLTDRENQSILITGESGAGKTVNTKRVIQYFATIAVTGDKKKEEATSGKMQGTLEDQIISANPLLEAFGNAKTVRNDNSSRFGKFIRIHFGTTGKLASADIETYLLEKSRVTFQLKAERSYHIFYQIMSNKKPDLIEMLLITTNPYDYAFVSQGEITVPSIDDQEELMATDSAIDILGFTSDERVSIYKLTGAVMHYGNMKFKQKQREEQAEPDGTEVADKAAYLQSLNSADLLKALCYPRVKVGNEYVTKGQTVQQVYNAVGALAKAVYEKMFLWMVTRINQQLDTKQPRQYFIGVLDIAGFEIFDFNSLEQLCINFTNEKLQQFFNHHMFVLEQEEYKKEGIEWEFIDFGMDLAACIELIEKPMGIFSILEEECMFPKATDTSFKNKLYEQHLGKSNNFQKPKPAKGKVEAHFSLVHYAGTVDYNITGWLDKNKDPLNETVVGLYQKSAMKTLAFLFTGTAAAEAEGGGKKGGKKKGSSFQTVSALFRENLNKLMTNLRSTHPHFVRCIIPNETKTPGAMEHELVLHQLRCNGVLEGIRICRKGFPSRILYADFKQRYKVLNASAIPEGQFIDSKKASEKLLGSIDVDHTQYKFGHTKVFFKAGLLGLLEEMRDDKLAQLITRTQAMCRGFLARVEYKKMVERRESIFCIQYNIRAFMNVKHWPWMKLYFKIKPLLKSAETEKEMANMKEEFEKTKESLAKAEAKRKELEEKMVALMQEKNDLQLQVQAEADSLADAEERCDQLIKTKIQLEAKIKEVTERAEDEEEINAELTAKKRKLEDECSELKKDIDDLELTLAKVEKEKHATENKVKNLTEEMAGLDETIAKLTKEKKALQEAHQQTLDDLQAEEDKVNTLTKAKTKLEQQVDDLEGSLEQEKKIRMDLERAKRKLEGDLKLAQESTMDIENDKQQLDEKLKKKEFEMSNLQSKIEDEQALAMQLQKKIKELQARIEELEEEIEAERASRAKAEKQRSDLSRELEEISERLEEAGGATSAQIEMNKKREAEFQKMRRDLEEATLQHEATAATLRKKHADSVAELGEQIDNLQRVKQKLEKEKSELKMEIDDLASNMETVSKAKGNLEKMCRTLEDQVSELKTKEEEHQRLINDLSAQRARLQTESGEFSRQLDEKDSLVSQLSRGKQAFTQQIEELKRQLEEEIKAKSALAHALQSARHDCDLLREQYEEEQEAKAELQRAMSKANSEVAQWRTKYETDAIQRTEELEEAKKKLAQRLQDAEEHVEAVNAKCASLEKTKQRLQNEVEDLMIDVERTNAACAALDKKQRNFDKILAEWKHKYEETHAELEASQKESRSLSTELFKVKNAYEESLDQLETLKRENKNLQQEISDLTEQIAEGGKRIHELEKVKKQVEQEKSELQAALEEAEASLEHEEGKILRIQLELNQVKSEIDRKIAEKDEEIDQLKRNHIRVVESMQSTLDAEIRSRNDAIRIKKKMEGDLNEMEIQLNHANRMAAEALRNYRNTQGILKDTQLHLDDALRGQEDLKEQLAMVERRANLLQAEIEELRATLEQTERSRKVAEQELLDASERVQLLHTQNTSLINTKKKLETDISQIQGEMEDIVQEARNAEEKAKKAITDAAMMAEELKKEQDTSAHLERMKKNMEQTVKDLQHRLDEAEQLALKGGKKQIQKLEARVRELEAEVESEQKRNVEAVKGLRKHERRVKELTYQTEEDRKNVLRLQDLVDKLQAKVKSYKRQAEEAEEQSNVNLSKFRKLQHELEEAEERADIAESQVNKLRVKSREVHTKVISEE
Sequence of Rabbit skeletal myosin (P02602 2-192, further chain): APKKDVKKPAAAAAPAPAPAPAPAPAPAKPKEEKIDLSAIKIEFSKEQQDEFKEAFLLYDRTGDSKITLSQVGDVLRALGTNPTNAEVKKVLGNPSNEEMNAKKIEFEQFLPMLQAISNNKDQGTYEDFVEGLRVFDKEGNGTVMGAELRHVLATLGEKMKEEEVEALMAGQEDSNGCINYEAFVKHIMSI
Sequence of Rabbit skeletal myosin (P02608 2-170, further chain): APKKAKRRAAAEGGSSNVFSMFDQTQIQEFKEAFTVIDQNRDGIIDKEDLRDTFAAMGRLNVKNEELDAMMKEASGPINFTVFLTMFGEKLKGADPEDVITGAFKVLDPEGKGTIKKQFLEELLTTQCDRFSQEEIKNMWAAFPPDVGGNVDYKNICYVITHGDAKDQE

in vitro motility: reduction of the motility of actin thin filaments over skeletal myosin thick filaments treated with MyBPC	GFS: force at an uncoiled length of 138 nm, control without antibody	GFS: force to uncoil the myosin molecule for a length of 50 nm, no stabilizer (control)	GFS: force to uncoil the myosin molecule for a length of 60 nm, tethered by S1 heads to G-actin (control)	GFS: force to uncoil the myosin molecule to a length of 100 nm, no destabilizer (control)	Substance
22%					Myosin binding protein C (MyBPC), whole length skeletal
	4.8 pN	3.62 pN	2.67 pN	4.92 pN	Rabbit skeletal myosin
